First the molecules themselves.
B1: g28v2-D38-2_CLK19 (antibody, V domains shown)
VH: QVQLVQSGAEVKKPGASVKVSCKASGYTFTDYYLHWVRQAPGQGLEWMGWINPIFGAPNYARKFQGRVTMTRDTSISTAYMELSRLNSDDTAVYYCTHVLATYRWRFDHWGQGTLVTVSS
VL: DIQMTQSPSSLSASVGDRVTFTCQASQDIGNFLNWYQQKPGKAPKLLIYDTSNLGAGVPSRFSGSGSGTDFTFTISSLQPEDIATYYCQQYATFGPGTKVDIK
B2: g28v2-D38-7_CLK19 (antibody, V domains shown)
VH: QVQLVQSGAEVKKPGASVKVSCKASGYTFTGYYMHWVRQAPGQGPEWMGWLNPNNGGTNFARKYQDRVTMTRDTSLSSAYMELSRLRSDDTAVYYCARVGEKWTFDFWGQGTMVTVSS
VL: DIQMTQSPSSLSASVGDRVTITCQASQDINNYLNWYQQKPGKAPKLLIYDTSNLEAGVPSRFSGSGSGTDFTFTISSLQPEDIATYFCQQYAAFGPGTKVDIK
B3: g28v2-D38-6_CLK19 (antibody, V domains shown)
VH: QVQLVQSGAEVREPGASVKVSCKASGYTFTGYYMHWVRQAPGQGLEWMGWINPNRGGTNLARKLQDRVTMTRDTSLSTAYMELRRLRTDDTAVYYCARVGEKWTFDIWGQGTMVTVSS
VL: DLQMTQSPSSLSASVGDRVTITCQASQDINNYLNWYQQKPGRAPKLLIYDTSNLETGVPSRFSGSGSGTDFTFTISSLQPEDIATYYCQQYAAFGPGTKVDIK
B4: g28v2-D46-13_CLK19 (antibody, V domains shown)
VH: QVQLVQSGAEVKKPGASVKVSCKASGYTFTGNYMHWVRQAPGQGLEWMGWINPNSGGTNYAQKFQGRVTMTRDTSISTAHMELRSLRSDDTAVYYCARVEGSWFGKKWTFDIWGQGTMVTVSS
VL: AIQMTQSPSSLSASVGDRVTITCQASQDITNYLNWYQQKPGKAPKLLIYDASNLEAGVPSRFSGSGSGTDFTFTISGLQPEDIATYSCQQYETFGPGTKVDIK
B5: g28v2-D38-4_CLK09 (antibody, V domains shown)
VH: QVQLVQSGAEVKKPGASVKVSCKASGYTFTDYFLHWVRQAPGQGLEWMGWINPTGGGVNYAQQFQGRVTLTRDTSISTAYMELTRLRSDDTAVYYCTPVLATFRWRFDYWGQGTLVTVSS
VL: DIQMTQSPSSLSASVGDRVTITCQASQDISNYLNWYQQKPGKAPKLLIYDVSNLGTGVPSRFSGSGSGTDFTFTISSLQPEDIATYYCQQYEFFGGGTKVEIK
B6: g28v2-D38-10_CLK19 (antibody, V domains shown)
VH: QVQLVQSGAEVKKPGASVKVSCKASGYTFTGYYIHWVRQAPGQGLEWMGWINPNSGGTNYPQKFQGRVTMTRDTSISTAYMELSRLRSDDTAVYYCALWFGEKWTFDIWGQGTMVTVSS
VL: DIQMTQSPSSLSASVGDRVTITCQASQDIGNYLNWYHQRPGKAPKLLIYDASNLETGVPSRFSGSGSGPDSTFTISTLQPEDIGTYYCQQYDTFGPGTKVDIK
B7: g28v2-D46-12_CLK19 (antibody, V domains shown)
VH: QVQLVQSGAEVKKPGASVKVSCKASGYTFTGYFMHWVRQAPGQGLEWMGWINPNTGGVNYSQKFQGRVTMTRDTSITTAYMELSSLRSDDTAVYFCVTALAGHGWRFDYWGQGTLVTVSS
VL: DIQMTQSPSSLSASVGDRVTITCQASQDTSNYLNWYQQKPGKAPKLLIYDASNLETGVPSRFSGSGSGTDFTFTISGLQPEDIATYYCQQYETFGPGTKVDIK
B8: g28v2-D38-11_CLK19 (antibody, V domains shown)
VH: QVQLVQSGAEVKKPGASVKVSCKASGYTFTGYYMHWVRQAPGQGLEWMGWINPNSGGTNYAQIFQDRVTMTRDTSISTAYLELSRLRSDDTAVYYCTRVDGVWSFDIWGQGTMVTVSS
VL: NIQMTQSPSSLSASVGDRVTITCQASQDISNYLNWYQQKPGKAPKILIYDASNLETGVPSRFSGSGSGTDFTFTISSLQPEDIATYYCQQYDTFGPGTKVDIK
B9: g28v2-D38-8_CLK19 (antibody, V domains shown)
VH: QVQLVQSGAEVKKPGASVKVSCKASGYSFSGYYMHWVRQAPGQGLEWMGWINPNHGGTNYAQKFQDRVTMTRDTSISTAYMELSRLRSDDTAVYFCARVDESWFGKKWTFDIWGQGTMVTVSS
VL: DIQMTQSPSSLSASVGDRVTITCQASQDIGNYLNWYQQKPGKAPKLLIYDTSNLETGVPSRFSGSGSGTDFSFTIASLQPEDIATYYCQQYDIFGPGTKVDIK
B10: g28v2-D38-9_CLK19 (antibody, V domains shown)
VH: QVQLVQSGAEVKKPGASVKVSCKASGYTFTVYYMHWVRQAPGQGLEWMGWINPNSGGTNYPQKFQGRVTMTRDTSISTAYMELSRLRSDDTAVYYCALWFGEKKTFDIWGQGTMVTVSS
VL: DIQMTQSPSSLSASVGDRVTITCQASQDIGNYLNWYQQKPGKAPKLLIYDTSNLETGVPSRFSGGGSGPDFTFTISTLQPEDIGTYYCQQYDTFGPGTKVDIK
B11: g28v2-D46-14_CLK19 (antibody, V domains shown)
VH: RVQLVQSGAEVKKPGASVKVSCKASGYTFTGYYIHWVRQAPGQGLEWMGWINPNRGGTNYPQKFQGRVTMTRDTSISTASMELSRLRSDDTAVYYCALWFGEKKTFDIWGQGTMVTVSS
VL: DIQLTQSPSSLSASVGGRVTITCQASQDIHNYLNWYQQKPGKAPKILIHDVSNLETGVPSRFSGSRSGTDFTFTISSLLPEDIGTYYCQQYEFFGPGTKVDIK
B12: g28v2-D38-3_CLK19 (antibody, V domains shown)
VH: QVQLVQSGAEVKKPGASVKVSCKASGYTFTGYFMHWVRQAPGQGLEWMGWINPHFGATNYAQKFQGRVTMTRDTSISTAYMELSRLRSDDWAVYYCTPVLATFRWRFDYWGQGTLVTVSS
VL: DIQMTQSPSSLSASVGDRVTISCQASQDINNYLNWYQQKPGKAPKLLIYDTSNLETGVPSRFSGSGSGTDFTFTISSLQPEDIATYYCQQYDTFGPGTKVDIK
B13: g28v2-D46-11_CLK19 (antibody, V domains shown)
VH: QVQLVQSGAEVKKPGASVRVSCKASGYTFTDYYMHWVRQAPGQGLEWMGWINPHSGGVNYAHKFQGRVTMTRDTSISTAYMELSRLRSDDTAVYYCTTALAGHGWRFDYWGQGTLVTVSS
VL: DIQMTQSPSSLSASVGDRVTITCQASQDTSNYLNWYQLKPGKAPKLLIYDASNLETGVPSRFSGSGSGTDFTFTISGLQPEDIATYYCQQYETFGPGTKVDIK
B14: g28v2-D46-10_CLK19 (antibody, V domains shown)
VH: QVQLVQSGAEVKRPGASVRVSCKASGYTFTGYYMHWVRQAPGQGLEWMGWINPNRGGVNYAHKFQGRVTMTRDTSISTAYMDLSRLRSDDTAVFYCTTALAGHGWRFDYWGQGTLVTVSS
VL: NIQMTQSPSSLSASVGDRVTITCQASQDTSNYLNWYQQKPGKAPKLLIYDASNLETGVPSRFSGSGSGTDFTFTISGLQPEDIATYYCQQYETFGPGTKVDIK
B15: g28v2-D38-5_CLK19 (antibody, V domains shown)
VH: QVQLVQSGAEVKKPGASVKVSCKASGYTFIDYYIHWVRQAPGQGLEWMGWINPYHGGTNCAQKFQDRVTMTRDTSISTAYLEMSRLRSDDTAVFFCVIALAGHGWRFDYWGQGTQVTVSS
VL: DIQMTQSPSSLSASVGDRVTITCQASQDINNYLNWYQQKPGKAPKLLIYDTSNLETGVPSRFSGSGSGTDFTFTISSLQPEDIATYYCQQYAAFGPGTKVDIK
B16: g28v2-D46-1_CLK19 (antibody, V domains shown)
VH: QVQLVQSGAEVKKPGAAVKVSCKASGYTFTGYYIHWVRQAPGQGLEWMGWVNPKTGATNYAQKFQGRVTMTRDTSISTTYMELRRLRSDETAVYFCATVMADFRWPFDYWGQGTLVTVSS
VL: DIQMTQSPSSLSASVGDRVTITCQASQDINNYLNWYQQKPGKAPKLLIYDTSNLGIGVPSRFSGSGSGTDFTFTISSLQPEDIGTYYCQQYDTFGPGTKVDIK

This assay addresses eOD-GT8 (monomeric ligand) (Human immunodeficiency virus 1, …).
Consider B1, for which binding was characterised by a dissociation constant (Kd) of 3710 nM.

With B2, the affinity, expressed as Kd, was 0.0876 nM.

For B3, binding was put at a Kd of 5.38 nM.

On to B4, for which binding was characterised by a dissociation constant (Kd) of 0.193 nM.

In turn, B5 showed a Kd of 0.177 nM.

In turn, B6 registered a dissociation constant (Kd) of 0.0433 nM.

Regarding B7, the Kd amounted to 0.183 nM.

The molecule B8 displayed a Kd of 0.0422 nM.

B9 had an equilibrium dissociation constant (Kd) of 50.8 nM.

Molecule B10 came in with a Kd of 0.149 nM.

With B11, binding was put at a Kd of 12 nM.

The molecule B12 registered a Kd of 105 nM.

B13 registered a Kd of 0.0455 nM.

B14 yielded a Kd of 1.35 nM.

Regarding B15, binding was put at a Kd of 4.43 nM.

Molecule B16 displayed a Kd of 10.8 nM.

The record behind these values is publication PMC11488661 (Science immunology, 2024).
